We go through 17 molecules from patent US20240026017A1 (Kyowa Kirin, published 2024).

For test [1], the target named is T1, human CC chemokine receptor 1 (human CCR1) (human, UniProt P32246 1-355).
T1 construct: endogenous on THP-1 cells in the migration assays; also called hCCR1; CHO-S-hCCR1 (expressing cells)
T1 sequence: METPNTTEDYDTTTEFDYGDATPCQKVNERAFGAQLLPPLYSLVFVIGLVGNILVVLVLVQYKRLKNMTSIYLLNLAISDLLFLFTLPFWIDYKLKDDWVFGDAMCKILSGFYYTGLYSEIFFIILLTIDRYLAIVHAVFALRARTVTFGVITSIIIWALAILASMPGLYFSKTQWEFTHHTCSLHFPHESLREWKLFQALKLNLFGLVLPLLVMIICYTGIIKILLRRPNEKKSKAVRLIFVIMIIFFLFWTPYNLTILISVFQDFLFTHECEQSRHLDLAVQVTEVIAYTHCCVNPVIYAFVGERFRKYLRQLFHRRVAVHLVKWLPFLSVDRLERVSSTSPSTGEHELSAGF
Put plainly: flow cytometry on CHO-S-hCCR1 cells; bound = fluorescence 10 times or more that of isotype control hzDNP1. As to the method: (§1) The antigen affinity of the chKM5908′ antibody, which is a VL-substituted chimeric antibody, was measured by flow cytometry using the CHO-S-hCCR1 cells produced in Example 2. The cells were collected by centrifugation, the supernatant was removed, and the cells were suspended in PBS (Staining Medium, hereinafter, abbreviated as SM) containing 2% fetal bovine serum (FBS), 0.05% NaN₃, and 1 mM EDTA. Next, the cells were seeded in a 96-well plate so that the number of cells is 1×10⁵ per well, and the chKM5908′ antibody was added at each final concentration of 10,000, 2,000, 400, 80, 16, and 3.2 ng/mL, and the reaction was performed at 4° C. for 60 minutes. After washing the cells with SM, Goat F (ab′)₂ Anti-Human IgG PE (γ chain specific) (Southern Biotech) diluted 500-fold with SM was added and reacted at 4° C. for 60 minutes. After washing the cells with SM, the cells were resuspended in 50 μL of SM, and the fluorescence intensity was measured by the flow cytometry (FACS Canto II, BD Biosciences).
Next, a modified antibody was obtained using the method described in Example 12-(3). […] Hereinafter referred to as hzDNP1)] were determined to bind to the human CCR1.

Test [2] concerns the target T1, human CC chemokine receptor 1 (human …). Put plainly: flow cytometry on CHO-S-hCCR1 cells; bound = fluorescence 10 times or more that of isotype control chDNP1. Here is the method:
as §1
1996 June; 33 (9):759-68, hereinafter, referred to as chDNP1)] were determined to be bound to the human CCR1.

B1: hzKM5916 LV0HV1 antibody (antibody, V domains shown)
VH: QVQLQESGGGLVKPGGSLKLSCAASGFTFSRNAMSWVRQTPDKRLEWVAYISSGSDYIYYADTVKGRFTISRDNAKNTLYLQMSSLKSEDTAMYYCTRFSYGYGKNAPDYWGQGTMVTVSS
VL: DIQMTQSPSSLSASVGDRVTITCKASQDINKYIAWYQQKPGKAPKLLIHYTSSLQPGVPSRFSGSGSGTDFSFTISSLQPEDLATYYCLQYDYTMTFGGGTKVEIK
notes: humanized; also called hzmAb5916 LV0HV1
With B1, the binding result in test [1] is reported as “binds”.

B2: hzKM5916 LV2HV1 antibody (antibody, V domains shown)
VH: QVQLQESGGGLVKPGGSLKLSCAASGFTFSRNAMSWVRQTPDKRLEWVAYISSGSDYIYYADTVKGRFTISRDNAKNTLYLQMSSLKSEDTAMYYCTRFSYGYGKNAPDYWGQGTMVTVSS
VL: DIQMTQSPSSLSASVGDRVTITCKASQDINKYIAWYQHKPGKGPKLLIHYTSSLQPGVPSRFSGSGSGTDFSFTISSLQPEDLATYYCLQYDYTMTFGGGTKVEIK
notes: humanized; also called hzmAb5916 LV2HV1
Turning to B2, the binding result in test [1] is given as “binds”.

B3: hzKM5916 LV2HV3 antibody (antibody, V domains shown)
VH: QVQLQESGGGLVKPGGSLKLSCAASGFTFSRNAMSWVRQTPEKRLEWVAYISSGSDYIYYADTVKGRFTISRDNAKNTLYLQMSSLRSEDTAMYYCTRFSYGYGKNAPDYWGQGTMVTVSS
VL: DIQMTQSPSSLSASVGDRVTITCKASQDINKYIAWYQHKPGKGPKLLIHYTSSLQPGVPSRFSGSGSGTDFSFTISSLQPEDLATYYCLQYDYTMTFGGGTKVEIK
notes: humanized; also called hzmAb5916 LV2HV3
With B3, in test [1], the binding result was “binds”.

B4: hzKM5916 LV0HV0 antibody (antibody, V domains shown)
VH: QVQLQESGGGLVKPGGSLKLSCAASGFTFSRNAMSWVRQTPDKRLEWVAYISSGSDYIYYADTVKGRFTISRDNAKNTLYLQMSSLKSEDTAMYYCARFSYGYGKNAPDYWGQGTMVTVSS
VL: DIQMTQSPSSLSASVGDRVTITCKASQDINKYIAWYQQKPGKAPKLLIHYTSSLQPGVPSRFSGSGSGTDFSFTISSLQPEDLATYYCLQYDYTMTFGGGTKVEIK
notes: humanized; also called hzmAb5916 LV0HV0
As to B4, the binding result in test [1] was “binds”.

B5: hzKM5916 LV0HV3 antibody (antibody, V domains shown)
VH: QVQLQESGGGLVKPGGSLKLSCAASGFTFSRNAMSWVRQTPEKRLEWVAYISSGSDYIYYADTVKGRFTISRDNAKNTLYLQMSSLRSEDTAMYYCTRFSYGYGKNAPDYWGQGTMVTVSS
VL: DIQMTQSPSSLSASVGDRVTITCKASQDINKYIAWYQQKPGKAPKLLIHYTSSLQPGVPSRFSGSGSGTDFSFTISSLQPEDLATYYCLQYDYTMTFGGGTKVEIK
notes: humanized; also called hzmAb5916 LV0HV3
For B5, the binding result in test [1] is listed as “binds”.

B6: chKM5908′ mut05 (antibody, V domains shown)
VH: QVQLKQSGPGLVQPSQSLSITCTVSGFSLNNYGVHWVRQPPGKGLEWLGVTWSAGTTVYNAAFISRLSISKDDSKSQVFFKMNSLQAGDTAIYYCAKDGSRYYTAMDYWGQGTSVTVSS
VL: DVVMTQTPLSLPVSLGDQASIFCRSSQSLVHRNGITFFHWYLQKPGQSPKLLIYKVSNRFSGVPDRFSGSGSGTDFTLKISRVAPDDLGVYFCSQGTHVPPTFGGGTKLEIK
On to B6, for which the binding result in test [2] is “binds”.

B7: chKM5908′ mut06 (antibody, V domains shown)
VH: QVQLKQSGPGLVQPSQSLSITCTVSGFSLNNYGVHWVRQPPGKGLEWLGVIWSAGTTAYNAAFISRLSISKDDSKSQVFFKMNSLQAGDTAIYYCAKDGSRYYTAMDYWGQGTSVTVSS
VL: DVVMTQTPLSLPVSLGDQASIFCRSSQSLVHRNGITFFHWYLQKPGQSPKLLIYKVSNRFSGVPDRFSGSGSGTDFTLKISRVAPDDLGVYFCSQGTHVPPTFGGGTKLEIK
As for B7, the binding result in test [2] was “binds”.

B8: chKM5908′ mut04 (antibody, V domains shown)
VH: QVQLKQSGPGLVQPSQSLSITCTVSGFSLNNYGVHWVRQPPGKGLEWLGVIWSAGTTVYNAAFISRLSISKDDSKSQVFFKMNSLQAGDTAIYYCAKDGSRYYTAMDYWGQGTSVTVSS
VL: DVVMTQTPLSLPVSLGDQASIFCRSSQSLVHRNGITFAHWYLQKPGQSPKLLIYKISNRFSGVPDRFSGSGSGTDFTLKISRVAPDDLGVYFCSQGTHVPPTFGGGTKLEIK
Consider B8, for which, in test [2], the binding result is “binds”.

B9: hzKM5907 LV2bHV0 antibody (antibody, V domains shown)
VH: EVQLLESGGGLVQPGGSLRLSCAASGFTFSRYGMSWVRQAPGKGLEWVSSISATFTYTYYTDNVKGRFTISRDNSKNTLYLQMNSLRAEDTAVYYCAKQDNYAWFDSWGQGTLVTVSS
VL: DIVMTQTPLSLPVTSGEPVSISCRSSQSIVHSNGNTFLEWYLKKPGQSPQLLIYKVSSRFSGVPDRFSGSGSGTDFTLKISRVEAEDVGVYYCFQGSHIPWTFGGGTKVEIK
notes: humanized; also called hzmAb5907 LV2bHV0
As for B9, the binding result in test [1] was “binds”.

B10: hzKM5907 LV2bHV2b antibody (antibody, V domains shown)
VH: EVQLLESGGGLVQPGGSLRLSCAASGFTFSRYGMSWVRQAPGKGLEWVASISATFTYTYYTDNVKGRFTISRDNSKNTLYLQMNSLRAEDTAVYYCARQDNYAWFDSWGQGTLVTVSS
VL: DIVMTQTPLSLPVTSGEPVSISCRSSQSIVHSNGNTFLEWYLKKPGQSPQLLIYKVSSRFSGVPDRFSGSGSGTDFTLKISRVEAEDVGVYYCFQGSHIPWTFGGGTKVEIK
notes: humanized; also called hzmAb5907 LV2bHV2b
As for B10, the binding result in test [1] is on record as “binds”.

B11: hzKM5907 LV2bHV3c antibody (antibody, V domains shown)
VH: EVQLLESGGGLVQPGGSLRLSCAASGFTFSRYGMSWVRQAPGKRLEWVSSISATFTYTYYTDNVKGRFTISRDNSKNTLYLQMNSLRAEDTGVYYCTKQDNYAWFDSWGQGTLVTVSS
VL: DIVMTQTPLSLPVTSGEPVSISCRSSQSIVHSNGNTFLEWYLKKPGQSPQLLIYKVSSRFSGVPDRFSGSGSGTDFTLKISRVEAEDVGVYYCFQGSHIPWTFGGGTKVEIK
notes: humanized; also called hzmAb5907 LV2bHV3c
As for B11, the binding result in test [1] is recorded as “binds”.

B12: hzKM5907 LV2bHV4 antibody (antibody, V domains shown)
VH: EVQLLESGGGLVQPGGSLRLSCAASGFTFSRYGMSWVRQAPGKGLEWVASISATFTYTYYTDNVKGRFTISRDNSKNTLYLQMNSLRAEDTGVYYCTRQDNYAWFDSWGQGTLVTVSS
VL: DIVMTQTPLSLPVTSGEPVSISCRSSQSIVHSNGNTFLEWYLKKPGQSPQLLIYKVSSRFSGVPDRFSGSGSGTDFTLKISRVEAEDVGVYYCFQGSHIPWTFGGGTKVEIK
notes: humanized; also called hzmAb5907 LV2bHV4
In the case of B12, the binding result in test [1] is listed as “binds”.

B13: hzKM5907 LV4HV7 antibody (antibody, V domains shown)
VH: EVQVLESGGGLVQPGGSLRLSCAASGFTFSRYGMSWVRQAPGKRLEWVASISATFTYTYYTDNVKGRFTISRDNSKNTLYLQMNSLRAEDTGMYYCTRQDNYAWFDSWGQGTLVTVSS
VL: DIVMTQTPLSLPVTLGEPVSISCRSSQSIVHSNGNTFLEWYLKKPGQSPKLLIYKVSSRFSGVPDRFSGSGSGTDFTLKISRVEAEDVGVYYCFQGSHIPWTFGGGTKVEIK
notes: humanized; also called hzmAb5907 LV4HV7
As to B13, the binding result in test [1] is on record as “binds”.

B14: hzKM5907 LV2bHV7 antibody (antibody, V domains shown)
VH: EVQVLESGGGLVQPGGSLRLSCAASGFTFSRYGMSWVRQAPGKRLEWVASISATFTYTYYTDNVKGRFTISRDNSKNTLYLQMNSLRAEDTGMYYCTRQDNYAWFDSWGQGTLVTVSS
VL: DIVMTQTPLSLPVTSGEPVSISCRSSQSIVHSNGNTFLEWYLKKPGQSPQLLIYKVSSRFSGVPDRFSGSGSGTDFTLKISRVEAEDVGVYYCFQGSHIPWTFGGGTKVEIK
notes: humanized; also called hzmAb5907 LV2bHV7
With B14, the binding result in test [1] is listed as “binds”.

B15: hzKM5907 LV2bHV3b antibody (antibody, V domains shown)
VH: EVQLLESGGGLVQPGGSLRLSCAASGFTFSRYGMSWVRQAPGKRLEWVASISATFTYTYYTDNVKGRFTISRDNSKNTLYLQMNSLRAEDTAVYYCTKQDNYAWFDSWGQGTLVTVSS
VL: DIVMTQTPLSLPVTSGEPVSISCRSSQSIVHSNGNTFLEWYLKKPGQSPQLLIYKVSSRFSGVPDRFSGSGSGTDFTLKISRVEAEDVGVYYCFQGSHIPWTFGGGTKVEIK
notes: humanized; also called hzmAb5907 LV2bHV3b
For the molecule B15, in test [1], the binding result was “binds”.

B16: hzKM5907 LV2bHV1 antibody (antibody, V domains shown)
VH: EVQLLESGGGLVQPGGSLRLSCAASGFTFSRYGMSWVRQAPGKRLEWVSSISATFTYTYYTDNVKGRFTISRDNSKNTLYLQMNSLRAEDTAVYYCAKQDNYAWFDSWGQGTLVTVSS
VL: DIVMTQTPLSLPVTSGEPVSISCRSSQSIVHSNGNTFLEWYLKKPGQSPQLLIYKVSSRFSGVPDRFSGSGSGTDFTLKISRVEAEDVGVYYCFQGSHIPWTFGGGTKVEIK
notes: humanized; also called hzmAb5907 LV2bHV1
As to B16, the binding result in test [1] is recorded as “binds”.

B17: hzKM5907 LV4HV0 antibody (antibody, V domains shown)
VH: EVQLLESGGGLVQPGGSLRLSCAASGFTFSRYGMSWVRQAPGKGLEWVSSISATFTYTYYTDNVKGRFTISRDNSKNTLYLQMNSLRAEDTAVYYCAKQDNYAWFDSWGQGTLVTVSS
VL: DIVMTQTPLSLPVTLGEPVSISCRSSQSIVHSNGNTFLEWYLKKPGQSPKLLIYKVSSRFSGVPDRFSGSGSGTDFTLKISRVEAEDVGVYYCFQGSHIPWTFGGGTKVEIK
notes: humanized; also called hzmAb5907 LV4HV0
As for B17, the binding result in test [1] was “binds”.
